This test concerns the target T1, HIV-1 p55gag precursor polyprotein (HIV-1, UniProt P04591 1-500).
T1 construct: In vitro translated control protein
The test is described as follows: coimmunoprecipitation of 35S-labeled in vitro translated proteins, SDS-PAGE.

B1: human Vpr Interacting Protein (hVIP), 35S-labeled, in vitro translated (other)
chain: MHARAAASVMDICRIRLDHAVSMSTFFFFLSSGMEVDAAVVPSVMACGVTGSVSVALHPLVILNISDHWIRMRSHQGRPVQVIGALIGKQEGRNIEVMNSFELLSHTVEEKIIIDKEYYYTKEEQFKQVFKELEFLGWYTTGGPPDPSDIHVHKQCCEIIESPLFLKLNPMTKHTDLPVSVFESVIDIINGEATMLFAELTYTLATEEAERIGVDHVARMTATGSGENSTVAEHLIAQHSAIKMLHSRVKLILEYVKASEAGEVPFNHEILREAYALCHCLPVLSTDKFKTDFYDQCNDVGLMAYLGTITKTCNTMNQFVNKFNVLYDRQGIGRRMRGLFF
modifications: 35S radiolabel
notes: In vitro translated hVIP of the coimmunoprecipitation assay; Anti-Express antibody was among the antibodies used, so it may have
Take B1: the binding result is given as “no binding”.
